T1: TNFR1 (Homo sapiens, UniProt P19438)
T1 chain: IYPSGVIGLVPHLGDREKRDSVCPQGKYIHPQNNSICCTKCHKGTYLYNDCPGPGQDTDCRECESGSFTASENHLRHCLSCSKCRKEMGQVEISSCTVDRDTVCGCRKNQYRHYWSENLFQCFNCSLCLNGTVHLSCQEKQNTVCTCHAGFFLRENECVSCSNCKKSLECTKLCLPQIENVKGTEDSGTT

T2: TNFR2 (UniProt P20333 23-212)
T2 chain: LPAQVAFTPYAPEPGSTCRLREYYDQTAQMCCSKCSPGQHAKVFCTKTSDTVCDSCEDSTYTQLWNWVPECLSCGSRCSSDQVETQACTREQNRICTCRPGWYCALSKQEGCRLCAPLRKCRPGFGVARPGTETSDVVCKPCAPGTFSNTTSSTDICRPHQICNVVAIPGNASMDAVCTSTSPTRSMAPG


Columns and labels:
[1] = molecular target: T1, TNFR1; test: yeast display SC50
[2] = molecular target: OX40_mb1; test: SPR
[3] = molecular target: TNFR1_mb1; test: SPR
[4] = molecular target: TNFR1_mb2; test: SPR
[5] = molecular target: T2, TNFR2; test: SPR

Row | apparent Kd (screen) [1] [nM] | Binder | also measured
1 | 0.446 | E16N (designed binder) MTLQELLREEALRRANAEAFRYALELLAEKFPEQKEYLLDLAEEIESQIRSLSGVDVEDVRKFLDKEWAWVKELLAEHPAELAEVEAARAARLAELRAEVEAKVAA | –
2 | 0.49 | L38W (designed binder) MTLQELLREEALRRAEAEAFRYALELLAEKFPEQKEYWLDLAEEIESQIRSLSGVDVEDVRKFLDKEWAWVKELLAEHPAELAEVEAARAARLAELRAEVEAKVAA | –
3 | 0.869 | E25N (designed binder) MTLQELLREEALRRAEAEAFRYALNLLAEKFPEQKEYLLDLAEEIESQIRSLSGVDVEDVRKFLDKEWAWVKELLAEHPAELAEVEAARAARLAELRAEVEAKVAA | –
4 | 0.593 | E25V (designed binder) MTLQELLREEALRRAEAEAFRYALVLLAEKFPEQKEYLLDLAEEIESQIRSLSGVDVEDVRKFLDKEWAWVKELLAEHPAELAEVEAARAARLAELRAEVEAKVAA | –
5 | 0.49 | E81Q (designed binder) MTLQELLREEALRRAEAEAFRYALELLAEKFPEQKEYLLDLAEEIESQIRSLSGVDVEDVRKFLDKEWAWVKELLAEHPAQLAEVEAARAARLAELRAEVEAKVAA | –
6 | 9.41 | D40P (designed binder) MTLQELLREEALRRAEAEAFRYALELLAEKFPEQKEYLLPLAEEIESQIRSLSGVDVEDVRKFLDKEWAWVKELLAEHPAELAEVEAARAARLAELRAEVEAKVAA | –
7 | 0.869 | V71Q (designed binder) MTLQELLREEALRRAEAEAFRYALELLAEKFPEQKEYLLDLAEEIESQIRSLSGVDVEDVRKFLDKEWAWQKELLAEHPAELAEVEAARAARLAELRAEVEAKVAA | –
8 | 0.539 | E43I (designed binder) MTLQELLREEALRRAEAEAFRYALELLAEKFPEQKEYLLDLAIEIESQIRSLSGVDVEDVRKFLDKEWAWVKELLAEHPAELAEVEAARAARLAELRAEVEAKVAA | –
9 | 4.83 | Y37R (designed binder) MTLQELLREEALRRAEAEAFRYALELLAEKFPEQKERLLDLAEEIESQIRSLSGVDVEDVRKFLDKEWAWVKELLAEHPAELAEVEAARAARLAELRAEVEAKVAA | –
10 | 0.653 | S51L (designed binder) MTLQELLREEALRRAEAEAFRYALELLAEKFPEQKEYLLDLAEEIESQIRLLSGVDVEDVRKFLDKEWAWVKELLAEHPAELAEVEAARAARLAELRAEVEAKVAA | –

The next lines start with the binder.

Row | Binder | apparent Kd (screen) [1] [nM] | also measured
11 | R61Y (designed binder) MTLQELLREEALRRAEAEAFRYALELLAEKFPEQKEYLLDLAEEIESQIRSLSGVDVEDVYKFLDKEWAWVKELLAEHPAELAEVEAARAARLAELRAEVEAKVAA | 10.4 | –
12 | T2N (designed binder) MNLQELLREEALRRAEAEAFRYALELLAEKFPEQKEYLLDLAEEIESQIRSLSGVDVEDVRKFLDKEWAWVKELLAEHPAELAEVEAARAARLAELRAEVEAKVAA | 0.956 | –
13 | R61G (designed binder) MTLQELLREEALRRAEAEAFRYALELLAEKFPEQKEYLLDLAEEIESQIRSLSGVDVEDVGKFLDKEWAWVKELLAEHPAELAEVEAARAARLAELRAEVEAKVAA | 2.25 | –
14 | Q48Y (designed binder) MTLQELLREEALRRAEAEAFRYALELLAEKFPEQKEYLLDLAEEIESYIRSLSGVDVEDVRKFLDKEWAWVKELLAEHPAELAEVEAARAARLAELRAEVEAKVAA | 11.4 | –
15 | R97A (designed binder) MTLQELLREEALRRAEAEAFRYALELLAEKFPEQKEYLLDLAEEIESQIRSLSGVDVEDVRKFLDKEWAWVKELLAEHPAELAEVEAARAARLAELAAEVEAKVAA | 0.718 | –
16 | S51M (designed binder) MTLQELLREEALRRAEAEAFRYALELLAEKFPEQKEYLLDLAEEIESQIRMLSGVDVEDVRKFLDKEWAWVKELLAEHPAELAEVEAARAARLAELRAEVEAKVAA | 0.718 | –
17 | K62V (designed binder) MTLQELLREEALRRAEAEAFRYALELLAEKFPEQKEYLLDLAEEIESQIRSLSGVDVEDVRVFLDKEWAWVKELLAEHPAELAEVEAARAARLAELRAEVEAKVAA | 0.49 | –
18 | R14S (designed binder) MTLQELLREEALRSAEAEAFRYALELLAEKFPEQKEYLLDLAEEIESQIRSLSGVDVEDVRKFLDKEWAWVKELLAEHPAELAEVEAARAARLAELRAEVEAKVAA | 0.49 | –
19 | A23M (designed binder) MTLQELLREEALRRAEAEAFRYMLELLAEKFPEQKEYLLDLAEEIESQIRSLSGVDVEDVRKFLDKEWAWVKELLAEHPAELAEVEAARAARLAELRAEVEAKVAA | 0.539 | –
20 | OX40 (protein) LHCVGDTYPSNDRCCHECRPGNGMVSRCSRSQNTVCRPCGPGFYNDVVSSKPCKPCTWCNLRSGSERKQLCTATQDTVCRCRAGTQPLDSYKPGVDCAPCPPGHFSPGDNQACKPWTNCTLAGKHTLQPASNSSDAICEDRDPPATQPQETQGPPARPITVQPTEAWPRTSQGPSTRPVEVPGGRA | – | Kd [2]: 30 nM; koff [2]: 0.033 s⁻¹
21 | TNFR1 (protein) LVPHLGDREKRDSVCPQGKYIHPQNNSICCTKCHKGTYLYNDCPGPGQDTDCRECESGSFTASENHLRHCLSCSKCRKEMGQVEISSCTVDRDTVCGCRKNQYRHYWSENLFQCFNCSLCLNGTVHLSCQEKQNTVCTCHAGFFLRENECVSCSNCKKSLECTKLCLPQIENVKGTEDSGTT | – | Kd [3]: 29 nM; koff [3]: 0.134 s⁻¹; Kd [4]: 24.5 nM; koff [4]: 0.0773 s⁻¹
22 | TNFR2_mb1 (designed binder) LNPEQVAKIGAAIDAGRKYLDAKIEEAKKTLTLRTAQALLVIRSQYERAVDTLFTDPSAAEKELAATLATIDRLLKEHPELAAEIKAFIRSTMAEIRALLAASLAA | – | koff [5]: 0.00277 s⁻¹
